Where a chain is given by its changes, count along the chain named.
Tests used:
[1] = target: ADDL fibril preparation (Aβ1-42 fibrils made in 10 mM hydrochloric acid); assay: solution equilibrium titration; free IgG by ELISA; GraFit
[2] = target: T1, biotinylated ADDLs (bADDLs), oligomers prepared from N-terminal biotinylated amyloid β1-42 (N-terminal biotin); assay: BIACORE, bADDL as antigen, IgG1 #1
T1 construct: also called high molecular weight 10% bADDL

[3] = target: T1, biotinylated ADDLs (bADDLs), oligomers …; assay: titration ELISA on streptavidin-captured 10% biotinylated ADDL
[4] = target: T1, biotinylated ADDLs (bADDLs), oligomers …; assay: BIACORE, bADDL as antigen, Fab
[5] = target: T1, biotinylated ADDLs (bADDLs), oligomers …; assay: BIACORE, bADDL as antigen, IgG1 #2
[6] = target: amyloid β1-42 peptide (Aβ1-42); assay: cell-based or functional assay
[7] = target: T2, Aβ-derived diffusible ligands (synthetic ADDLs), soluble oligomers of amyloid β1-42; assay: solution equilibrium titration; free IgG by ELISA; GraFit
T2 construct: number of copies varies (trimer, tetramer, 12-24 mer)

[8] = target: T3, amyloid beta (1-40) peptide; assay: as above
T3 construct: Residues 1-40 counted on the Aβ1-42 entry; used as monomer-like control; also called Aβ1-40; Aβ1-40 monomer

[9] = target: T4, higher molecular weight oligomers of the ADDL preparation; assay: western immunoblot of ADDLs after SDS-PAGE (column DENATURED SPECIES IDENTIFIED: HMW ADDLs)
T4 construct: also called higher molecular weight material (12-24 mer)

[10] = target: T5, trimers of ADDLs (multi-dimensional conformation of soluble amyloid β1-42 oligomers, as defined by SDS-PAGE) (UniProt P05067 672-713); assay: recognition of ADDL species defined by SDS-PAGE (see FIG. 3)
T5 construct: domain: amyloid β1-42; It is a species within the ADDL preparation

[11] = target: T6, tetramers of ADDLs (multi-dimensional conformation of soluble amyloid β1-42 oligomers, as defined by SDS-PAGE) (UniProt P05067 672-713); assay: as above
T6 construct: domain: amyloid β1-42; It is a species within the ADDL preparation

[12] = target: T7, SEC Peak 1 fraction of ADDLs (large aggregates, >50 kDa); assay: sandwich ELISA with polyclonal M90 as capture antibody; signal on SEC Peak 1 divided by signal on SEC Peak 2 of ADDLs
T7 construct: Size exclusion fraction of synthetic ADDLs; monomer, trimer, tetramer and 12-24 mers on SDS-PAGE

B1: murine anti-ADDL monoclonal antibody 3B3 (antibody, mouse IgG1, V domains shown)
VH: DVQLVESGGGLVQPGGSRKLSCAASGFTFSSFGMHWVRQAPEKGLEWVAYISRGSSTIYYADTVKGRFTISRDNPKNTLFLQMTSLRSEDTAMYYCARGITTALDYWGQGTSVTVSS
VL: DVLMTQTPLSLPVSLGDQASISCRSSQSIVHSNGNTYLEWYLQKPGQSPKLLIYKASNRFSGVPDRFSGSGSGTDFTLKISRVEAEDLGVYYCFQGSHVPPTFGGGTKLEIK
Work on B1 yielded a Kd [1] of 7.21 nM.

B2: affinity-matured humanized 20C2-1A, IgG1 (humanized A version) (antibody, V domains shown)
VH: QVTLKESGPALVKPTQTLTLTCTFSGFSLSTSGMGVGWIRQPPGKALEWLAHIWWDDDKSYNPSLKSRLTISKDTSKNQVVLTMTNMDPVDTATYYCARRQLGLRSIDAMDYWGQGTTVTVSS
VL: DVVMTQSPLSLPVTPGEPASISCRSSQSILHSNGNTYLEWYLQKPGQSPQLLIYKVSNRFSGVPDRFSGSGSGTDFTLKISRVEAEDVGVYYCFQASRVPLTFGQGTKLEIKR
notes: also called clone SJ-p2-60
B2 gave a Kd [2] of 0.075 nM.

B3: humanized 20C2, veneered, HCVR VenA IgG1 with veneered 20C2 LCVR Kappa (antibody, V domains shown)
VH: B2 VH with A10G, L11I, V12L, T15S, T19S, I39F, A46G, V81F, M84I
VL: B2 VL with T14S, P15L, E17D, V88L, A96G, R98L, Q105A, I111L
notes: also called 20C2 VenA
B3: binds [3].

B4: humanized 1F6, CDR grafted, IgG1/kappa (antibody, V domains shown)
VH: EVQLVESGGGLVQPGGSLRLSCAASGFTFSSFGMHWVRQAPGKGLEWVAYISSVSSTIYYADTVKGRFTISRDNSKNTLYLQMNSLRAEDTAVYYCARSGYGSSYGYGMDYWGQGTLVTVSS
VL: B2 VL with L30V, A96G, R98H
notes: also called 1F6 (humanized)
B4: binds [3].

B5: humanized 3B3, CDR grafted, IgG1/kappa (antibody, V domains shown)
VH: EVQLVESGGGLVQPGGSLRLSCAASGFTFSSFGMHWVRQAPGKGLEWVAYISRGSSTIYYADTVKGRFTISRDNAKNSLYLQMNSLRAEDTAVYYCARGITTALDYWGQGTLVTVSS
VL: B2 VL with L30V, V56A, A96G, R98H, L101P
notes: also called 3B3 (humanized)
B5: binds [3].

B6: Fab fragment of affinity-matured humanized 20C2-18A (Fab, V domains shown)
VH: B2 VH
VL: B2 VL with F94M, A96S, R98F
Work on B6 yielded a Kd [4] of 85 nM.

B7: humanized 4E2, CDR grafted, IgG1/kappa (antibody, V domains shown)
VH: QVTLKESGPALVKPTQTLTLTCTFSGFSLSTSGMGVGWIRQPPGKALEWLAHIWWDDDKYYNPSLKSQLTISKDTSKNQVVLTMTNMDPVDTATYYCARRSINSVVPEDYFDYWGQGTTVTVSS
VL: B2 VL with L30V, A96G, R98H
notes: also called 4E2 (humanized)
B7: binds [3].

B8: affinity-matured humanized 20C2-2A, IgG1 (humanized A version) (antibody, V domains shown)
VH: B2 VH
VL: B2 VL with S97T
notes: also called clone SJ-p1-18
Work on B8 yielded a Kd [2] of 0.015 nM and a Kd [5] of 0.0003 nM.

B9: humanized 26D6, CDR grafted, IgG1/kappa (antibody)
heavy: not shown
light: DVVMTQSPLSLPVTPGEPASISCRASQSIVHSNGNTYLEWYLQKPGQSPQLLIYRVSNRFSGVPDRFSGSGSGTDFTLKISRVEAEDVGVYYCFQVTHVPLTFGQGTKLEIKRTVAAPSVFIFPPSDEQLKSGTASVVCLLNNFYPREAKVQWKVDNALQSGNSQESVTEQDSKDSTYSLSSTLTLSKADYEKHKVYACEVTHQGLSSPVTKSFNRGEC
B9: binds [3].

B10: humanized 26D6, CDR grafted, IgG2m4/kappa (antibody)
heavy: QVTLKESGPTLVKPTQTLTLTCTFSGFSLSTSGMGVSWIRQPPGKALEWLAHIYWDDDKQYNPSLKSRLTITKDTSKNQVVLTMTNMDPVDTATYYCARRASSSRYDDQFDYWGQGTLVPVSSASTKGPSVFPLAPCSRSTSESTAALGCLVKDYFPEPVTVSWNSGALTSGVHTFPAVLQSSGLYSLSSVVTVTSSNFGTQTYTCNVDHKPSNTKVDKTVERKCCVECPPCPAPPVAGPSVFLFPPKPKDTLMISRTPEVTCVVVDVSQEDPEVQFNWYVDGVEVHNAKTKPREEQFNSTFRVVSVLTVLHQDWLNGKEYKCKVSNKGLPSSIEKTISKTKGQPREPQVYTLPPSREEMTKNQVSLTCLVKGFYPSDIAVEWESNGQPENNYKTTPPMLDSDGSFFLYSKLTVDKSRWQQGNVFSCSVMHEALHNHYTQKSLSLSPGK
light: B9 light
B10: binds [3].

B11: murine anti-ADDL monoclonal antibody 2B4 (antibody, mouse IgG2b, V domains shown)
VH: not shown
VL: DVVMTQTPLSLPVSLGDQASISCRSSQSLVHSNGNTYLHWYLQKPGQSPKLLIYKVSNRFFGVPDRFSGSGSGTDFTLKISRVEAEDLGVYFCSQTTYVPLTFGAGTKLELK
B11 was tested, and the “IC50 (read off the curve)” value [6] was ~100 nM, the Kd [7] was 2.09 nM and the Kd [1] was 10.5 nM. It also gave a Kd [8] of 27.6 nM.

B12: murine anti-ADDL monoclonal antibody 1F4 (antibody, mouse IgG1, V domains shown)
VH: B4 VH with E1D, L18R, R19K, G42E, S75P, Y80F, N84T, A88S, V93M
VL: B1 VL with A56V, P101L, G105A, I111L
In the case of B12, the Kd [7] is reported as 9.24 nM and the Kd [1] is reported as 12.5 nM.

B13: murine anti-ADDL monoclonal antibody 2A10 (antibody, mouse IgG1, V domains shown)
VH: QVTLKESGPGILKPSQTLSLTCSFSGFSLSTSGMGVGWIRQPSGKGLEWLAHIWWDDDKYYNPSLKSQLTISKDTSRNQVFLKITSVDTADTATYYCARRSISTLVPEDYFDYWGQGTTLTVSS
VL: B1 VL with A56V, P101L, G105A, I111L
B13: binds [9]; binds [10]; binds [11]. The Kd [1] was 6.72 nM and the “Peak 1/Peak 2 Ratio (ELISA)” value [12] was 20.

B14: murine anti-ADDL monoclonal antibody 5F10 (antibody, V domains shown)
VH: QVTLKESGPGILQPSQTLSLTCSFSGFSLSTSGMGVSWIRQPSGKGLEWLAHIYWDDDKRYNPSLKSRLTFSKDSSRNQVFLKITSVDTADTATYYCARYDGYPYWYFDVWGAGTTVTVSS
VL: B11 VL with D1V, V3L, F61S, S94F, T96S, Y98H
For B14, the Kd [1] was 28.9 nM and the “Peak 1/Peak 2 Ratio (ELISA)” value [12] was 18.

B15: murine anti-ADDL monoclonal antibody 4C2 (antibody, mouse IgG1, V domains shown)
VH: B13 VH with S103T, L105V, D112A
VL: B1 VL with T7S, A56V, P101L, G105A, I111L
With B15 the binding result [9] was “binds”, the Kd [1] was 19.2 nM and the “Peak 1/Peak 2 Ratio (ELISA)” value [12] was 18.

B16: murine anti-ADDL monoclonal antibody 2D6 (antibody, mouse IgG1, V domains shown)
VH: B13 VH with L105V, V106I, T119I
VL: B1 VL with P12T, A56V, P101L, G105A, I111L
In the case of B16, the Kd [1] is reported as 14.4 nM and the “Peak 1/Peak 2 Ratio (ELISA)” value [12] is reported as 19.

B17: humanized 2H4, CDR grafted, IgG1/kappa (antibody, V domains shown)
VH: EVQLVESGGGLVQPGGSLRLSCAASGFTFSSFGMHWVRQAPGKGLEWVAYIRSGSSTIYYADTVKGRFTISRDNSKNTLYLQMNSLRAEDTAVYYCARGGNYYGSSRFAYWGQGTLVTVSS
VL: DIQMTQSPSSLSASVGDRVTITCKASQDINSYLSWFQQKPGKAPKTLIYRANRFVDGVPSRFSGSGSGTDYTLTISSLQPEDFATYFCLQYDEFPLTFGGGTKVEIKR
notes: also called 2H4 (humanized)
B17: binds [3].
